The target in this experiment is PpiC of E. faecium (mature PpiC, residues 25–336) (E. faecium). Put plainly: SEC-MALS; SEC coupled to light scattering (SEC-LS); 500 micrograms loaded on Superdex 200 increase 10/300 GL (PpiC) or Superdex 75 increase 10/300 GL (PpiC^ΔC); 50 mM Tris-HCl, 150 mM NaCl, 5% glycerol, pH 7.8; 0.5 mL/min. For orientation: In gel filtration, larger molecules generally elute earlier.

Broadly, the stoichiometry N is a count of units in the complex or per binding partner. As for “PpiC of E. faecium (mature PpiC, residues 25–336) (enzyme)”, the stoichiometry N was found to be 2.
